T1: RsHMT (Raphanus sativus, UniProt C6L2E7)
T1 sequence (C6L2E7 1-226): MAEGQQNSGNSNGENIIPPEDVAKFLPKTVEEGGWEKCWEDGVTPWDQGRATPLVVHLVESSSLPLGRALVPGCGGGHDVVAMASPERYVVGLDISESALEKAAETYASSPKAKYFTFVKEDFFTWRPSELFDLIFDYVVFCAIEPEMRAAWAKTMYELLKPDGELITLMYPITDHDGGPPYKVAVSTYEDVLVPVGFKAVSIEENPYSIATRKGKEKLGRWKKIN

T2: AtHMT (Arabidopsis thaliana, UniProt Q0WP12)
T2 sequence (Q0WP12 1-227): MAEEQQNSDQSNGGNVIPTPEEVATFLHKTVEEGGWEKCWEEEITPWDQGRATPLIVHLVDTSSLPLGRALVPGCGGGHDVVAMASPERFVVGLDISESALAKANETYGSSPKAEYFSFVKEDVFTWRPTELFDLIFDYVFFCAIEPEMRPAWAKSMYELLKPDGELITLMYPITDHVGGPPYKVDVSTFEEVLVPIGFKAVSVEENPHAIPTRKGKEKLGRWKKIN

T3: AtHMT (Arabidopsis thaliana, UniProt Q0WP12, V140T)
T3 sequence (Q0WP12 1-227 V140T): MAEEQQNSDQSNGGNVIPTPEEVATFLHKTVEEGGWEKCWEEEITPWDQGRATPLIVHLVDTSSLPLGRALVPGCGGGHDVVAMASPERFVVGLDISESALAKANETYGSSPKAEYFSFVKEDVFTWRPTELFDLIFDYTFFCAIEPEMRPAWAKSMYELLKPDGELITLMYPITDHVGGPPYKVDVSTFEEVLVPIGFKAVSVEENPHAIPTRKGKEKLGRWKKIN

B1: AtHMT (Arabidopsis thaliana) (protein)
chain: MAEEQQNSDQSNGGNVIPTPEEVATFLHKTVEEGGWEKCWEEEITPWDQGRATPLIVHLVDTSSLPLGRALVPGCGGGHDVVAMASPERFVVGLDISESALAKANETYGSSPKAEYFSFVKEDVFTWRPTELFDLIFDYVFFCAIEPEMRPAWAKSMYELLKPDGELITLMYPITDHVGGPPYKVDVSTFEEVLVPIGFKAVSVEENPHAIPTRKGKEKLGRWKKIN
B2: AtHMT (Arabidopsis thaliana; V140T) (protein)
chain: MAEEQQNSDQSNGGNVIPTPEEVATFLHKTVEEGGWEKCWEEEITPWDQGRATPLIVHLVDTSSLPLGRALVPGCGGGHDVVAMASPERFVVGLDISESALAKANETYGSSPKAEYFSFVKEDVFTWRPTELFDLIFDYTFFCAIEPEMRPAWAKSMYELLKPDGELITLMYPITDHVGGPPYKVDVSTFEEVLVPIGFKAVSVEENPHAIPTRKGKEKLGRWKKIN

Legend:
[1] = molecular target: T1, RsHMT; test: alkylation of SAH, specific activity; assay type: biochemical; conditions: co-substrate SAH
[2] = molecular target: T2, AtHMT; test: kinetic analysis of methyl transfer to SAH; assay type: biochemical; conditions: read-out: Methyltransferase activity / K M, MeI; co-substrate SAH
[3] = molecular target: T3, AtHMT; test: kinetic analysis of methyl transfer to SAH; assay type: biochemical; conditions: read-out: Methyltransferase activity / K M, MeI; co-substrate SAH
[4] = substrate: CCI; test: kinetic analysis of ethyl transfer to SAH; assay type: biochemical, Arabidopsis thaliana; conditions: co-substrate SAH

Molecule	alkylation of SAH, specific activity [1]	Km [2] [mM]	Km [3] [mM]	Km [4] [mM]	kcat [4] [s⁻¹]	kcat/Km [4] [M⁻¹ s⁻¹]
CCI [ethyl iodide]	all three enzymes had promiscuous activity against ethyl iodide	–	–	–	–	–
CI [methyl iodide]	All three HMTs were active using methyl iodide	1.43 ± 0.19	4.7 ± 0.76	–	–	–
B1	–	–	–	9.36 ± 1.66	0.006 ± 0.0005	0.633
B2	–	–	–	11.14 ± 1.52	0.0397 ± 0.00267	3.57

Reference: publication PMC7839550 (Angewandte Chemie (International Ed. in English), 2020)
